Test results taken from US12319739 (F STAR DELTA, dated 2025).
Where a chain is given by its changes, count along the chain named.

Experiments:
hMSLN-His-Avi [1] = target: T1, hMSLN-His-Avi (human, UniProt Q13421 296-598, single biotin on the Avi tag in the biotinylated form); test: ratio of SPR KDs
T1 construct: Monomeric; also called human MSLN-His-Avi; hMSLN-Avi-His
Procedure: (§1) 7.1 Binding of CD137/MSLN mAb2 to Human MSLN Under Avid Conditions—Antigen Capture Method Binding of all mAb^2 to MSLN immobilised on a BIAcore chip was tested to determine the binding affinity to human MSLN under avid conditions, where a high concentration of immobilised antigen is available to allow the antibody to bind avidly. […] The association time was 5 min and the dissociation time was 10 min. Running buffer was HBS-EP (GE Healthcare BR100188). Flow cells were regenerated by injecting Glycine-HCl pH1.5 at a flow rate of 30 μl/min for 30 seconds. Data were analysed by double referencing against a flow cell which was intentionally left blank (no antigen coating). The binding kinetics were fitted with a 1:1 Langmuir model to generate binding association (k_a) and dissociation (k_d) rates. Equilibrium binding constants (K_D) were calculated by dividing the dissociation rate by the association rate for each sample. Data analysis was performed with BiaEvaluation software version 3.2.
(§2) The association time was 5 min and the dissociation time was 5 min. Running buffer was HBS-EP (GE Healthcare BR100188). Flow cells were regenerated by injecting Glycine-HCl pH2.1 at a flow rate of 30 μl/min for 15 seconds. The data was analysed as described in Example 7.1.

[2] = target: human CD137 on primary human CD8+ T cells (human, UniProt Q07011 24-255); test: cell-based or functional assay
human CD137 on primary human CD8+ T cells, sequence (Q07011 24-255): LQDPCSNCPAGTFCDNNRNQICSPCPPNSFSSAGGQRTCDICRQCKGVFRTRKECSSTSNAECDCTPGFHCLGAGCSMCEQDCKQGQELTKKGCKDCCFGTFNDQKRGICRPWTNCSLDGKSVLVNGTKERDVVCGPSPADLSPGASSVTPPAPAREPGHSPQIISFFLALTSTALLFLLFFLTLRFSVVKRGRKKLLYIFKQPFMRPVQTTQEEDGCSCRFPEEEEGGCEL

hMSLN-His-Avi [3] = target: T1, hMSLN-His-Avi; test: SPR, mAb2 captured on Protein G, hMSLN-His-Avi in solution
Procedure: as §2

hCD137-mFc-Avi = target: T2, hCD137-mFc-Avi (human; mouse, UniProt Q07011 24-186, one biotin on each Avi tag in the biotinylated form); test: SPR, mAb2 captured by anti-human Fab, hCD137-mFc-Avi in solution
T2 construct: also called human dimeric CD137; human CD137-mFc-Avi
T2 sequence (Q07011 24-186): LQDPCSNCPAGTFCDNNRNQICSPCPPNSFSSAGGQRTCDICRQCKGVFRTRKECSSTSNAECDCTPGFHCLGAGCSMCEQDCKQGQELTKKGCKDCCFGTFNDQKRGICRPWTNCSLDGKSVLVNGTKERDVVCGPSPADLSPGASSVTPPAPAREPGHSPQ
Procedure: A Biacore CM5 chip was coated with anti-human Fab using a Human Fab Capture Kit (GE Healthcare 28958325) according to manufacturer's conditions, to a surface density of approximately 9000 RU. […] The association time was 5 min and the dissociation time was 5 min. Running buffer was HBS-EP. Flow cells were regenerated by injecting two repeat injections of 10 mM glycine-HCl at pH 2.1 at a flow rate of 30 μl/min for 30 seconds. Data analysis was performed as described in earlier examples (see e.g. Example 7.1).

[4] = target: T3, endogenous cell surface human MSLN (human, UniProt Q13421 296-598); test: flow cytometry, NCI-H226 cells + 20 nM soluble MSLN
T3 construct: whole, on cells; The cell line is named under assay; also called cell-surface MSLN on NCI-H226, OVCAR-3 and AsPC-1 cells
T3 sequence (Q13421 other isoform, or with tags, fused parts or gaps limits assumed): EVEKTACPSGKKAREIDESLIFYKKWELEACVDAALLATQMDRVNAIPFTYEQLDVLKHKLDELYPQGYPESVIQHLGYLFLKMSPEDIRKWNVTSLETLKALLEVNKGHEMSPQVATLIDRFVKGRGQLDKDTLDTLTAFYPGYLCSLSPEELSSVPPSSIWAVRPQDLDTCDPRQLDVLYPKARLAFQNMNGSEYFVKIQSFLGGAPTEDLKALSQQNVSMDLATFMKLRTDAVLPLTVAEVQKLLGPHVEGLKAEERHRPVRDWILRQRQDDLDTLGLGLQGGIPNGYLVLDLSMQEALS
Procedure: (§3) To confirm binding to cell surface MSLN, mAb² listed in Table 9 were analysed for binding to endogenous cell surface MSLN on the human lung cancer cell line NCI-H226. In addition, and because MSLN can be found in blood in a shed soluble form, there is a risk that this circulating MSLN might affect exposure and ultimately potency of our mAb². To confirm that presence of soluble MSLN has minimal impact, additional binding experiments to NCI-H226 cells were performed in the presence of 20 nM soluble MSLN which is 10-20 times the level of soluble MSLN found to be of diagnostic value for defining malignant mesothelioma and lung cancer patients as MSLN positive (Cui et al., 2014). Briefly, NCI-H226 cells (ATCC CRL-5826) were harvested from T175 cell culture flasks using Accutase (Gibco, A11105-01).
(§4) In both cases, cells were centrifuged at 1200 rpm for 3 min and resuspended in ice cold FACS buffer made up of DPBS (Life Technologies, 14190169) and 1% BSA (Sigma-Aldrich, A7906) at 2×10⁶ cells/ml and 50 μl per well was seeded in a 96-well V-bottom plate (Costar, 3894). All antibodies tested were diluted in FACS buffer in 120 μl at a concentration range of 0.01-200 nM (4-fold dilutions). The NCI-H226 cells were then centrifuged, supernatant removed and cells resuspended in 100 μl of each mAb dilution and incubated at 4° C. for 45 min. Cells were washed twice by centrifugation with 150 μl FACS buffer, resuspended in 100 μl containing goat anti-human IgG (γ-chain specific) F(ab')2 fragment-R-Phycoerythrin antibody (Sigma, P8047) diluted 1:1000 in FACS buffer and incubated at 4° C. for 45 min. The cells were washed once with 150 μl FACS buffer and then with 150 μl DPBS, resuspended in 150 μl DPBS containing DAPI (Biotium, 40043) at 1:10.000 and read on the BDCantoII or iQue (Intellicyt).

[5] = target: T3, endogenous cell surface human MSLN; test: flow cytometry, NCI-H226 cells
Procedure: as §3, §4

hMSLN-His-Avi [6] = target: T1, hMSLN-His-Avi; test: SPR, hMSLN-His-Avi immobilised ~100 RU, mAb2 injected
Procedure: as §1

cMSLN-His-Avi [7] = target: T4, cMSLN-His-Avi (cynomolgus, single biotin on the Avi tag in the biotinylated form); test: SPR, mAb2 captured on Protein G, cMSLN-His-Avi in solution
T4 construct: Monomeric; also called cyno MSLN-His-Avi; cMSLN-Avi-His
T4 chain: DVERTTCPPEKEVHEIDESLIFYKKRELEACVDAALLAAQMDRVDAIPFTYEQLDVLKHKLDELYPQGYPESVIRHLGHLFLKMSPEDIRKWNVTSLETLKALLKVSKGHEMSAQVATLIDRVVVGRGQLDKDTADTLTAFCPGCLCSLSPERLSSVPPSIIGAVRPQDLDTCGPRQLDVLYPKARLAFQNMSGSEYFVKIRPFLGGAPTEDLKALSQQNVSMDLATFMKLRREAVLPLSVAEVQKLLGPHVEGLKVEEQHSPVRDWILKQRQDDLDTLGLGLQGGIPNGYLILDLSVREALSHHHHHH
Procedure: as §2

mMSLN-His-Avi [8] = target: T5, mMSLN-His-Avi (mouse, UniProt Q61468 298-600, single biotin on the Avi tag in the biotinylated form); test: SPR, mAb2 captured by anti-human Fc, mMSLN-His-Avi in solution
T5 construct: also called mouse MSLN-His-Avi
T5 sequence: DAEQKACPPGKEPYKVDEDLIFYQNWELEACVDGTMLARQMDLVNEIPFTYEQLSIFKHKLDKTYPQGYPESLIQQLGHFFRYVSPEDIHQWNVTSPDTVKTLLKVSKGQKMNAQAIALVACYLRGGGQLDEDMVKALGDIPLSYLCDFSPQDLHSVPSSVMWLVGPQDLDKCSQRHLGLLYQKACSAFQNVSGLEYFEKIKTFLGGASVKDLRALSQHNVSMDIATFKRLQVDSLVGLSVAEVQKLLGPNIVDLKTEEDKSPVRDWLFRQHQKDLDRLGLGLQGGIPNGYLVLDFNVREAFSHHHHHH
Procedure: (§5) To determine the affinity for soluble MSLN the mAb^2 was captured via an anti-human Fc. Briefly, 25 µg/ml anti-human IgG (Fc) antibody (GE Healthcare, Human Antibody Capture Kit, BR100839) was immobilised on a Biacore sensor chip CM5 (GE Healthcare, BR100530) achieving a final response of approximately 750 RU. The mAb^2 molecule, diluted in HBS-EP buffer (GE Healthcare, BR100188) at 50 nM, was injected individually at 30 µl/min to achieve a response of approximately 100 RU. The recombinant mMSLN-His-Avi antigen, diluted in HBS-EP buffer, was injected at a concentration range of 243 nM to 0.11 nM with 3-fold dilutions for 5 minutes at 70 µl/min and then allowed to dissociate in buffer for 5 minutes. Regeneration was achieved by injecting 3 M magnesium chloride (GE Healthcare, Human Antibody Capture Kit, BR100839) for 30 seconds at a rate of 30 µl/min.

mMSLN-His-Avi [9] = target: T5, mMSLN-His-Avi; test: SPR, mMSLN-His-Avi immobilised at 50 RU
mMSLN-His-Avi [10] = target: T5, mMSLN-His-Avi; test: ratio of SPR KDs
Procedure: as §5

cMSLN-His-Avi [11] = target: T4, cMSLN-His-Avi; test: SPR, mAb2 captured on Protein G, MSLN in solution
Procedure: as §2

T1 sequence (Q13421 other isoform, or with tags, fused parts or gaps): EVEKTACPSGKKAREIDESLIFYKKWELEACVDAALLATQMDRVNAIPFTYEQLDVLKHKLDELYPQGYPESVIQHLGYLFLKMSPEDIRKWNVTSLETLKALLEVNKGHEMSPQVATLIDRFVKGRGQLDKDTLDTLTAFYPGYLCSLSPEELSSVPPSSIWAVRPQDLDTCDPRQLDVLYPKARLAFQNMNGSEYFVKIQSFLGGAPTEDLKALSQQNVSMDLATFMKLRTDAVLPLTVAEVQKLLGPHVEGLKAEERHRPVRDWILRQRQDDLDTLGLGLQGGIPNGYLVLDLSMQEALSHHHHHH

B1: FS22-172-003-AA/FS28-024-052 (bispecific antibody, human IgG1, kappa, L234A L235A, V domains shown)
VH: EVQLLESGGGLVQPGGSLRLSCAASGFTLSYSSMSWVRQAPGKGLEWVSFITPSTGYTHYADSVKGRFTISRDNSKNTLYLQMNSLRAEDTAVYYCARRALLFDYWGQGTLVTVSS
VL: EIVLTQSPGTLSLSPGERATLSCRASQSVSSSYLAWYQQKPGQAPRLLIYGASSRATGIPDRFSGSGSGTDFTLTISRLEPEDFAVYYCQQASSYPLTFGQGTKVEIKR
notes: IgG1 mAb^2 with LALA
KD ratio in solution/immobilised human MSLN (hMSLN-His-Avi [1]): 85 | Emax (IL-2 pg/ml), NCI-H226 co-culture, Donor A [2]: 1070 pg/mL | Emax (IL-2 pg/ml), NCI-H226 co-culture, Donor B [2]: 1690 pg/mL | IL-2 release EC50, NCI-H226 co-culture, Donor A [2]: 0.04 nM | IL-2 release EC50, NCI-H226 co-culture, Donor B [2]: 0.05 nM | Kd (hMSLN-His-Avi [3]): 33.1 nM | Kd (hCD137-mFc-Avi): 1.51 nM | EC50 [4]: 3.64 nM | Emax (MFI) [4]: 799000 MFI | EC50 [5]: 0.884 nM | Emax (MFI) [5]: 752000 MFI | Kd (hMSLN-His-Avi [6]): 0.39 nM | Kd (cMSLN-His-Avi [7]): 239 nM

B2: FS22m-063-AA/FS28m-228 (bispecific antibody, human IgG1, kappa, L234A L235A, V domains shown)
VH: EVQLLESGGGLVQPGGSLRLSCAASGFTFSTYFMVWVRQAPGKGLEWVSMISPKSSNTYYADSVKGRFTISRDNSKNTLYLQMNSLRAEDTAVYYCARWFTPARFDYWGQGTLVTVSS
VL: B1 VL with A92P, S93F, S94P, Y95F, P96S, L97F
notes: IgG1 mAb^2 with LALA; also called anti-mouse CD137/MSLN mAb^2
Kd (mMSLN-His-Avi [8]): 252 nM | Kd (mMSLN-His-Avi [9]): 7.9 nM | ratio of KD in solution/immobilised (mMSLN-His-Avi [10]): 31.9

B3: FS22-172-003-AA/FS28-024-060 (bispecific antibody, human IgG1, kappa, L234A L235A, V domains shown)
VH: B1 VH with L102W
VL: B1 VL
notes: IgG1 mAb^2 with LALA
KD ratio in solution/immobilised human MSLN (hMSLN-His-Avi [1]): 33 | Emax (IL-2 pg/ml), NCI-H226 co-culture, Donor A [2]: 1400 pg/mL | Emax (IL-2 pg/ml), NCI-H226 co-culture, Donor B [2]: 1940 pg/mL | IL-2 release EC50, NCI-H226 co-culture, Donor A [2]: 0.04 nM | IL-2 release EC50, NCI-H226 co-culture, Donor B [2]: 0.06 nM | Kd (hMSLN-His-Avi [3]): 4.27 nM | fold less cross reactive compared to human MSLN (cMSLN-His-Avi [11]): 54 fold | EC50 [4]: 4.69 nM | Emax (MFI) [4]: 930000 MFI | EC50 [5]: 0.695 nM | Emax (MFI) [5]: 840000 MFI | Kd (hMSLN-His-Avi [6]): 0.13 nM | Kd (cMSLN-His-Avi [7]): 230 nM

B4: FS22m-063-AA/FS28m-228-010 (bispecific antibody, human IgG1, kappa, L234A L235A, V domains shown)
VH: B2 VH with W99Y, F100H, T101I, P102S, A103P
VL: B1 VL with A92P, S93F, S94P, Y95F, P96S, L97F
notes: IgG1 mAb^2 with LALA
Kd (mMSLN-His-Avi [8]): 60.2 nM | Kd (mMSLN-His-Avi [9]): 2.6 nM | ratio of KD in solution/immobilised (mMSLN-His-Avi [10]): 23.2
